US20250312452A1 (BRISTAR IMMUNOTECH, published 2025)

Legend:
[1] = target: T1, Human Claudin18.2 His tag protein (human, UniProt P56856-2 1-261, limits assumed); experiment: BLI (Octet), antibody on Protein A biosensor
T1 construct: also called Claudin18.2 protein; not shown: His tag
T1 sequence (looked up): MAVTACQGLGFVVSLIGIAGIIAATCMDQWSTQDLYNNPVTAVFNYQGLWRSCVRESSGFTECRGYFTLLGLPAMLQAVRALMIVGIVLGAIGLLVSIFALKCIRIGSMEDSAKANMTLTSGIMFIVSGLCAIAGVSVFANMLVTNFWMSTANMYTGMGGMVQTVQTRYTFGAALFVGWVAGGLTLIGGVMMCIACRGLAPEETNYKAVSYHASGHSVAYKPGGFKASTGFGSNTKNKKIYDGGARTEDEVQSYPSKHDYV
Protocol: The affinity of Claudin18.2 nanobodies was determined. The affinity of the antibodies was measured using the Fortebio Octet® detection instrument based on the biolayer interferometry (BLI) technique.
After the 5 antibodies were immobilized on the Protein A biosensor, the antibodies could bind to the Human Claudin18.2 His tag protein. The measured affinity was calculated using Data Analysis 11 software of the Octet RED96e (ForteBio). The affinities (KD values) of antibody NCLD04 and antibody NCLD31 for the Claudin18.2 protein are both favorable.

[2] = target: human Claudin18.2 expressed on cells (human) (UniProt P56856); experiment: flow cytometry on SNU1-hClaudin18.2 cells, APC anti-human IgG Fc secondary antibody
[3] = target: human Claudin18.2 expressed on cells (human) (UniProt P56856); experiment: flow cytometry on SNU1-hClaudin18.2 cells
MSLN = target: T2, MSLN (UniProt Q13421 296-580, limits assumed); experiment: BLI affinity detection
T2 construct: also called mesothelin
T2 sequence (Q13421 other isoform, or with tags, fused parts or gaps limits assumed): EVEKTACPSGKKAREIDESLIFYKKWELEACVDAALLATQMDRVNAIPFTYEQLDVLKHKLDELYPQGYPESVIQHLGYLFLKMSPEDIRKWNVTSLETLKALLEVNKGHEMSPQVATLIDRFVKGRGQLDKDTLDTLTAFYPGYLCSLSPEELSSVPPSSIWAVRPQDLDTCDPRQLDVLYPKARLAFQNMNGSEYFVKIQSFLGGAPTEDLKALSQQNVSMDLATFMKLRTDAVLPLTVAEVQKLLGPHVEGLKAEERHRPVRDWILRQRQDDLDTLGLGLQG

Claudin18.2 protein = target: T3, Claudin18.2 protein (UniProt P56856-2 1-261, limits assumed); experiment: flow cytometry of STAR-T cells stained with Claudin18.2 protein
T3 sequence (looked up): T1 sequence (looked up)
Description: The above-mentioned vectors were used to package lentiviruses and infect T cells. After one week of culture, the expression levels of STAR and Claudin18.2 on the cells were detected by flow cytometry.
Specifically, the expression of the Claudin18.2 antibody in the STAR structure on the cell membrane was detected by staining with the Claudin18.2 Protein antibody, and the positive rate of STAR vector infection was detected by mTCRβ. […] The protein binding of NCR8020-NCLD04α-STAR and NCLD04 STAR is relatively good, exceeding 55%. Both MND-NCLD04β-NCR802a STAR-mL15 and MND-NCR8020-NCLD04α STAR-mL15 can be successfully expressed on the membrane.

B1: NCLD14 (VHH-IgG1 Fc) (Fc fusion)
chain: DVQLQESGGGLVQPGGSLRLSCATSGFTFSTYNMGWFRQAPGKEREFVGSIKWSASTTYYADSVKGRFTISRDNAKNTVYLQMNSLKPEDTAIYYCAGSPHIALGTRTEMYPYWGQGTQVTVSS
notes: Tested as VHH-IgG1 Fc; also called antibody NCLD14; not shown: IgG1 Fc fused to the VHH
Q: B1 was tested. Which Kd [1] did it give?
A: 72.6 nM

Q: And the koff [1]?
A: 0.00456 s⁻¹

Q: And the kon [1]?
A: 62900 M⁻¹ s⁻¹

Q: What about the EC50 (read off the curve) [2] of the same binder?
A: 3 nM

Q: What about the EC50 [3] of the same binder?
A: 21 nM

B2: NM5 (VHH)
VHH: DVQLQESGGGLVQAGGSLRLSCVGAGVSFSPYGIGWWRQAQGNQREWVASIYRSGSTNYEDFAKDRFTISRDNTKNTAYLQMNSLKPEDTAVYYCQILGTSYRGQGTQVTVSS
notes: also called nanobody NM5; NM5 antibody
Q: With B2 as the binder, how does the Kd (MSLN) read?
A: 11.4 nM

B3: NCLD04-STAR (NCLD04β-STAR-a(G4S)3OX40(gh)) (other)
chain 1: DVQLQESGGGLVQPGGSLRLSCTASGLTFNDYAVSWLRQAPGKEREFVATIRGSGGVTNYGASAEGRFIISRENAENTVYLQMNSLKSEDTAVYYCNARPLFGWSEEYWGQGTQVTVSSEDLRNVTPPKVSLFEPSKAEIANKQKATLVCLARGFFPDHVELSWWVNGKEVHSGVCTDPQAYKESNYSYCLSSRLRVSATFWHNPRNHFRCQVQFHGLSEEDKWPEGSPKPVTQNISAEAWGRADCGITSASYQQGVLSATILYEILLGKATLYAVLVSTLVVMAMVKRKNS
chain 2: DIQNPEPAVYQLKDPRSQDSTLCLFTDFDSQINVPKTMESGTFITDKCVLDMKAMDSKSNGAIAWSNQTSFTCQDIFKETNATYPSSDVPCDATLTEKSFETDMNLNFQNLLVIVLRILLLKVAGFNLLMTLRLWGGGGSGGGGSGGGGSRRDQRLPPDAHKPPGGGSFRTPIQEEQADAHSTLAKI
notes: Synthetic T-cell receptor and antigen receptor on T cells; NCLD04 VHH on the beta constant region; also called NCLD04-STAR-T
Q: Which “protein binding (percent of cells)” value (Claudin18.2 protein) does the source give for B3 here?
A: > 55%
